From publication PMC3583667 (Molecular Biology of the Cell, 2013)
Where two headings read alike, the source gives them in different places.

Assays:
Assay in all cases: co-IP
EGFP–Rab11-FIP1C [1] = target: T1, EGFP–Rab11-FIP1C (UniProt Q6WKZ4-3 1-649)
T1 sequence (looked up): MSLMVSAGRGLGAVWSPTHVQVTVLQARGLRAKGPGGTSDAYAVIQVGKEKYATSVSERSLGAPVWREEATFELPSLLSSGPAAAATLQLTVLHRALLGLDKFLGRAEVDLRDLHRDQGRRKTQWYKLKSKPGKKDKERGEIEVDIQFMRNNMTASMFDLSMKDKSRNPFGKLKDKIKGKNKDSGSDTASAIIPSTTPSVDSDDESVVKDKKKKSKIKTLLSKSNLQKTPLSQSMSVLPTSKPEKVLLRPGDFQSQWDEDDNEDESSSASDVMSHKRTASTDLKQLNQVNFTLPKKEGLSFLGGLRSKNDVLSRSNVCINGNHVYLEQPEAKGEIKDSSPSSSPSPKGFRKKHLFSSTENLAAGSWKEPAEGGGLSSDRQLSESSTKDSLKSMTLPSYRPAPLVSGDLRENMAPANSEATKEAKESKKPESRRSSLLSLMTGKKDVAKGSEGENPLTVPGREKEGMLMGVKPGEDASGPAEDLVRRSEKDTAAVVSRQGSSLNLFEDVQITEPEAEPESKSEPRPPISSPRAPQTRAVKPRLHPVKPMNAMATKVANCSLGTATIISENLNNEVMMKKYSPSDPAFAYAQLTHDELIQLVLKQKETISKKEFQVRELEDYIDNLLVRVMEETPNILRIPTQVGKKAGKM

EGFP–Rab11-FIP1A [2] = target: T2, EGFP–Rab11-FIP1A (UniProt Q6WKZ4-1 1-612)
T2 sequence (looked up): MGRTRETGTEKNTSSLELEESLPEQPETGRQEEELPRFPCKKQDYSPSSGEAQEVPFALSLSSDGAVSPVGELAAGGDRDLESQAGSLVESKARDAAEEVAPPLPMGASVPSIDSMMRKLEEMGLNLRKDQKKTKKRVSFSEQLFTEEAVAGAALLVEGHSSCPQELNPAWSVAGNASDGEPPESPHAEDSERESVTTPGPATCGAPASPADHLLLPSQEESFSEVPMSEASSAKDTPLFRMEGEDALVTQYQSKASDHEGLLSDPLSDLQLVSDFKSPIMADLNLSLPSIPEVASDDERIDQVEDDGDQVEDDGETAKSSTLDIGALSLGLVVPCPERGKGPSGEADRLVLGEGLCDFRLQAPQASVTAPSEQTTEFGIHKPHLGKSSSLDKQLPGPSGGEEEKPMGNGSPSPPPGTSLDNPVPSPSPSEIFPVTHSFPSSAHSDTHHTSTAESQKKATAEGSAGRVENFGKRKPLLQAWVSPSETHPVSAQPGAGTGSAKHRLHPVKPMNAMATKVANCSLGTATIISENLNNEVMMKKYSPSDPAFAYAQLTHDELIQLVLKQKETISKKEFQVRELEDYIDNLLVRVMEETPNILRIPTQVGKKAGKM

EGFP–Rab11-FIP1B [3] = target: T3, EGFP–Rab11-FIP1B (UniProt Q6WKZ4-4 1-1283)
T3 sequence (looked up): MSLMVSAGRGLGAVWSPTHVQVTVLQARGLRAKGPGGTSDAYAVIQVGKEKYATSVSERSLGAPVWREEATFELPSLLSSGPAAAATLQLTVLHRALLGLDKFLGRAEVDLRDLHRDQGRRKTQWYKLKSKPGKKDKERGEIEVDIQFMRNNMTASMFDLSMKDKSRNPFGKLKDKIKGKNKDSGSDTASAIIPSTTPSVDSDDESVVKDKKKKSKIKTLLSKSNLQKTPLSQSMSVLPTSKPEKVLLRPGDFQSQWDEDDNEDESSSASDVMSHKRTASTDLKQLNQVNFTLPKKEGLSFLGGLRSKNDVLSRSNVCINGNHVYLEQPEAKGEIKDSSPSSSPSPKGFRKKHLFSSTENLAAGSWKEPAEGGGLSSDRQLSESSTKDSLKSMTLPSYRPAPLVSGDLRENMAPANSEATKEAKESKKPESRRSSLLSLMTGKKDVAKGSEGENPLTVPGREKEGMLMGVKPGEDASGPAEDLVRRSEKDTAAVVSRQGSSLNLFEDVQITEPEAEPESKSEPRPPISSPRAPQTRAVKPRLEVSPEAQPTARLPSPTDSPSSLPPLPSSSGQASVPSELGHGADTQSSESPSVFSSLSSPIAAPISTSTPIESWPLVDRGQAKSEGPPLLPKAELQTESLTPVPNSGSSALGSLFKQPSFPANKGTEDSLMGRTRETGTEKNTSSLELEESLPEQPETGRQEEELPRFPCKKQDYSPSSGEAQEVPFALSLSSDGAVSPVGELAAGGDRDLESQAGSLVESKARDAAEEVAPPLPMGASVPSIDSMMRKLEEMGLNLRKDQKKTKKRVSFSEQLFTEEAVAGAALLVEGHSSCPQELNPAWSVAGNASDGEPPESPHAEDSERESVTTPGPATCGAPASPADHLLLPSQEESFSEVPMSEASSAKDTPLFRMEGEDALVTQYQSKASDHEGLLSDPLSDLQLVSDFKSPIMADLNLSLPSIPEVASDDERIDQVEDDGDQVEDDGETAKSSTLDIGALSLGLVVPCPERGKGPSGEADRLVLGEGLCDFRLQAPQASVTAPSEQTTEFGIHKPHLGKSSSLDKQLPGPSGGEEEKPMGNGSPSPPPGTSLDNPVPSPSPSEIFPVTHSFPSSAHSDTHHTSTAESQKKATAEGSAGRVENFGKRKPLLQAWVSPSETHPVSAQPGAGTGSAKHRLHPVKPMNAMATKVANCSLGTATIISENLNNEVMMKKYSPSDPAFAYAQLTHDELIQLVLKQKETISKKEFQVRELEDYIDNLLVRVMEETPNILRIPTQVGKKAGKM

EGFP–Rab11-FIP1C [4] = target: T1, EGFP–Rab11-FIP1C; remark: listed apart in the source
EGFP–Rab11-FIP1A [5] = target: T2, EGFP–Rab11-FIP1A; remark: listed apart in the source
EGFP–Rab11-FIP1B [6] = target: T3, EGFP–Rab11-FIP1B; remark: listed apart in the source

B1: mCherry–Rab11-FIP1A (natural protein, UniProt Q6WKZ4-1 1-612, looked up)
chain: T2 sequence (looked up)
EGFP–Rab11-FIP1C [1]
  percentage of total FIP1A recovered on the beads: 15.2%
EGFP–Rab11-FIP1A [2]
  percentage of total FIP1A recovered on the beads: 15.2%
EGFP–Rab11-FIP1B [3]
  percentage of total FIP1A recovered on the beads: 11.8%
EGFP–Rab11-FIP1C [4]
  percentage of total FIP1A recovered on the beads: 11.6%
EGFP–Rab11-FIP1A [5]
  percentage of total FIP1A recovered on the beads: 18.6%
EGFP–Rab11-FIP1B [6]
  percentage of total FIP1A recovered on the beads: 13.4%
